Test results: publication PMC6336799, “Novel non-phosphorylative pathway of pentose metabolism from bacteria” (Scientific Reports, 2019)

What was measured:
Assay type in all cases: biochemical, Herbaspirillum huttiense
[1] = substrate: O=C(O)[C@@H](O)[C@H](O)[C@H](O)CO; assay: purified protein; details: 50 mM HEPES-NaOH pH 7.2, 1.5 mM NAD+ for coupling enzyme
[2] = substrate: O=C(O)[C@@H](O)[C@H](O)[C@H](O)[C@H](O)CO; assay: purified protein; details: 50 mM HEPES-NaOH pH 7.2, 1.5 mM NAD+ for coupling enzyme
[3] = substrate: O=C(O)C(=O)C[C@@H](O)CO; assay: coupled spectrophotometric assay (alpha-KGSA dehydrogenase); details: 50 mM HEPES-NaOH pH 7.2, 1.5 mM NAD+ for coupling enzyme, 1 mM MgCl2 if necessary
[4] = substrate: O=C(O)C(=O)C[C@H](O)CO; assay: as above; details: 50 mM HEPES-NaOH pH 7.2, 1.5 mM NAD+ for coupling enzyme, 1 mM MgCl2 if necessary
[5] = substrate: C[C@H](O)[C@@H](O)CC(=O)C(=O)O; assay: spectrophotometric NADH formation; details: NAD+ as coenzyme, 50 mM Tris-HCl pH 9.0
[6] = substrate: O=C(O)C(=O)C[C@H](O)CO; assay: spectrophotometric NADH formation; details: NAD+ as coenzyme, 50 mM Tris-HCl pH 9.0

B1: C785_RS13685 (D-arabinonate dehydratase) (Herbaspirillum huttiense subsp. lycopersici) (protein)
chain: MKANSPIIRLNPVDDVVIARQQLISGTVLQDEGGLKVQGLIPAGHKMATRAISAGEPVKRYGQIIGTASQDIAPGQHVHTHNLAMAEFSREHHFGADVKPVDFVAEPATFMGIVRPDGRVATRNYIGVLTSVNCSATAARAIADYFRRDIHPEVLADYPNIDGVVALTHGQGCATDSQGEPLQILRRTLAGYATHPNFAAVLVVGLGCETNQISGLMESHNLKEGEYFHTFTIQGTGGTAKTVALGIEKIKKMLPKANDIKREPVSAKHLTLGLQCGGSDGYSGITANPALGAAVDLLVRHGGTAILSETPEIYGAEHLLTRRAVSPEVGEKLLARIAWWEEYCAKNDAEMNNNPSAGNKAGGLTTILEKSLGAVAKGGTTNLVDVYKYAETVTARGFVFMDTPGYDPISATGQVAGGANMICFTTGRGSAYGCAPAPSLKLATNTALWQRQEEDMDINCGEIADSNVTPQEVGERFFQMILDTASGKKTKSELHGYGQDEFVPWHIGVYT
notes: full length, N-terminal (His)6-tag (pQE-80L), expressed in E. coli DH5alpha, Ni-NTA; iron protein stored with Fe2+ and DTT
[1]
  Km: 0.202 ± 0.003 mM
  kcat: 542 ± 4 min⁻¹
[2]
  Km: 5.91 ± 0.09 mM
  kcat: 2.36 ± 0.03 min⁻¹

B2: C785_RS13710 (KDP dehydratase) (Herbaspirillum huttiense subsp. lycopersici) (protein)
chain: MRLIQYRDLHGQRRVGIVNGASIQVLGEVDTMRELGLLAIERHTGLERLAQLLNTDRSEDYAAILAEGRILAPLDHPDPAHCRVSGAGTTHLGSATTRDKMHRRIEGDELDKTDTQLMIEWGIAGGRPAPGTVGVQPEWFYKGDGHCIVAPGQPLPRPDFALDGGEEPEIVGLYLIDDAGCPRRLGFAIGNEFSDHVMERRNYLYQGHSKLRHCAFGPELLVGLPPAHLVGMTRIRRRGRVIWEQEFLTGPDNMCHSIENLEYHTFKYAHLLHAGDVHAHFMGAANLSFAYSVRTEDGDSIEISIPDFGAPLVNGIQHVQSNLRPGGVRQL
notes: full length, N-terminal (His)6-tag, expressed in Pseudomonas putida KT2442-oxyR1 (pUCP/C785_RS13710), Ni-NTA
[3]
  Km: 0.533 ± 0.160 mM
  kcat: 12.1 ± 2.1 min⁻¹
[4]
  Km: 1.91 ± 0.20 mM
  kcat: 10.8 ± 0.3 min⁻¹

B3: C785_RS13675 (D-KDP/L-KDF 4-dehydrogenase) (Herbaspirillum huttiense subsp. putei IAM 15032) (protein)
chain: MSASTGRLAGKTVLITAAAQGIGRASTELFAREGARVIATDISKTHLEELASIAGVETHLLDVTDDDAIKALVAKVGTVDVLFNCAGYVAAGNILECDDKAWDFSFNLNAKAMFHTIRAVLPGMLAKKAGSIVNIASAASSVKGVANRFAYGASKAAVVGLTKSVAADFVSQGIRCNAICPGTIESPSLNQRISTQAKETGKSEDEVRAAFVARQPMGRIGKAEEVAALALYLASDESNFTTGSIHMIDGGWSN
notes: full length, N-terminal (His)6-tag (pQE-80L), expressed in E. coli DH5alpha, Ni-NTA
[5]
  Km: 0.169 ± 0.003 mM
  kcat: 1930 ± 29 min⁻¹
[6]
  Km: 1.12 ± 0.21 mM
  kcat: 1630 ± 220 min⁻¹
